# Measurements reported in US20030166872A1 (APPLIED MOLECULAR EVOLUTION, published 2003).
# Target: T1, integrin αVβ3 (human, UniProt P06756 31-1048; P05106 27-788)
# T1 construct: mature; biotinylated in capture lift and capture ELISA; also on M21 melanoma cells in some assays; also called vitronectin receptor; αVβ3 receptor
# Assay: SPR (BIAcore)
fold slower dissociation rate,fold greater association rate,Binder
> 10 fold,,"LM609 grafted antibody combinatorial clone 2G4 (Fab, V domains shown, Fab) VH: QVQLVESGGGVVQPGRSLRLSCAASGFTFSSYDMSWVRQAPGKGLEWVAKVSSGGGSTYYLDTVQGRFTISRDNSKNTLYLQMNSLRAEDTAVYYCARHNYGSFASWGQGTTVTVSS VL: EIVLTQSPATLSLSPGERATLSCQASQSISNHLHWYQQRPGQAPRLLIRYRSQSISGIPARFSGSGSGTDFTLTISSLEPEDFAVYYCQQSGSWPLTFGGGTKVEIK"
> 10 fold,2 to 4 fold,"LM609 grafted antibody combinatorial clone 6G1 (Fab, V domains shown, Fab) VH: QVQLVESGGGVVQPGRSLRLSCAASGFTFSSYDMSWVRQAPGKGLEWVAKVSSGGGSTYYPDTVQGRFTISRDNSKNTLYLQMNSLRAEDTAVYYCARHNYGSFASWGQGTTVTVSS VL: EIVLTQSPATLSLSPGERATLSCQASQSISNHLHWYQQRPGQAPRLLIRYRSQSISGIPARFSGSGSGTDFTLTISSLEPEDFAVYYCQQSGSWPLTFGGGTKVEIK"
> 10 fold,,"LM609 grafted antibody combinatorial clone 6D1 (Fab, V domains shown, Fab) VH: QVQLVESGGGVVQPGRSLRLSCAASGFTFSSYDMSWVRQAPGKGLEWVAKVSSGGGSTYYPDTVQGRFTISRDNSKNTLYLQMNSLRAEDTAVYYCARHNYGSFYSWGQGTTVTVSS VL: EIVLTQSPATLSLSPGERATLSCQASQSISNHLHWYQQRPGQAPRLLIRYRSQSISGIPARFSGSGSGTDFTLTISSLEPEDFAVYYCQQSGSWPLTFGGGTKVEIK"
> 10 fold,,"LM609 grafted antibody combinatorial clone 17 (Fab, V domains shown, Fab) VH: QVQLVESGGGVVQPGRSLRLSCAASGFTFSSYDMSWVRQAPGKGLEWVAKVSSGGGSTYYLDTVQGRFTISRDNSKNTLYLQMNSLRAEDTAVYYCARHNYGSFASWGQGTTVTVSS VL: EIVLTQSPATLSLSPGERATLSCQASQSISNFLHWYQQRPGQAPRLLIRYRSQSISGIPARFSGSGSGTDFTLTISSLEPEDFAVYYCQQSGSWPHTFGGGTKVEIK"
> 10 fold,,"LM609 grafted antibody combinatorial clone 7 (Fab, V domains shown, Fab) VH: QVQLVESGGGVVQPGRSLRLSCAASGFTFSSYDMSWVRQAPGKGLEWVAKVSSGGGSTYYPDTVQGRFTISRDNSKNTLYLQMNSLRAEDTAVYYCARHNHGSFASWGQGTTVTVSS VL: EIVLTQSPATLSLSPGERATLSCQASQSISNFLHWYQQRPGQAPRLLIRYRSQSISGIPARFSGSGSGTDFTLTISSLEPEDFAVYYCQQSGSWPHTFGGGTKVEIK"
> 10 fold,,"LM609 grafted antibody combinatorial clone 8F9 (Fab, V domains shown, Fab) VH: QVQLVESGGGVVQPGRSLRLSCAASGFTFSSYDMSWVRQAPGKGLEWVAKVSSGGGSTYYPDTVQGRFTISRDNSKNTLYLQMNSLRAEDTAVYYCARHNHGSFASWGQGTTVTVSS VL: EIVLTQSPATLSLSPGERATLSCQASQSISNHLHWYQQRPGQAPRLLIRYRSQSISGIPARFSGSGSGTDFTLTISSLEPEDFAVYYCQQSGSWPLTFGGGTKVEIK"
> 10 fold,,"LM609 grafted antibody combinatorial clone C37 (Fab, V domains shown, Fab) VH: QVQLVESGGGVVQPGRSLRLSCAASGFTFSSYDMSWVRQAPGKGLEWVAKVSSGGGSTYYLDTVQGRFTISRDNSKNTLYLQMNSLRAEDTAVYYCARHNYGSFYEWGQGTTVTVSS VL: EIVLTQSPATLSLSPGERATLSCQASQSISNHLHWYQQRPGQAPRLLIRYRSQSISGIPARFSGSGSGTDFTLTISSLEPEDFAVYYCQQSGSWPLTFGGGTKVEIK"
> 10 fold,,"LM609 grafted antibody combinatorial clone C176 (Fab, V domains shown, Fab) VH: QVQLVESGGGVVQPGRSLRLSCAASGFTFSSYDMSWVRQAPGKGLEWVAKVSSGGGSTYYPDTVQGRFTISRDNSKNTLYLQMNSLRAEDTAVYYCARHNYGSFATWGQGTTVTVSS VL: EIVLTQSPATLSLSPGERATLSCQASQSISNFLHWYQQRPGQAPRLLIRYRSQSISGIPARFSGSGSGTDFTLTISSLEPEDFAVYYCQQSGSWPHTFGGGTKVEIK"
> 10 fold,,"LM609 grafted antibody combinatorial clone C119 (Fab, V domains shown, Fab) VH: QVQLVESGGGVVQPGRSLRLSCAASGFTFSSYDMSWVRQAPGKGLEWVAKVSSGGGSTYYPDTVQGRFTISRDNSKNTLYLQMNSLRAEDTAVYYCARHNYGSFASWGQGTTVTVSS VL: EIVLTQSPATLSLSPGERATLSCQASQSISNHLHWYQQRPGQAPRLLIRYRSQSISGIPARFSGSGSGTDFTLTISSLEPEDFAVYYCQQSNSWPHTFGGGTKVEIK"
> 10 fold,,"LM609 grafted antibody combinatorial clone 56 (Fab, V domains shown, Fab) VH: QVQLVESGGGVVQPGRSLRLSCAASGFTFSSYDMSWVRQAPGKGLEWVAKVSSGGGSTYYPDTVQGRFTISRDNSKNTLYLQMNSLRAEDTAVYYCARHNYGSFASWGQGTTVTVSS VL: EIVLTQSPATLSLSPGERATLSCQASQSISNFLHWYQQRPGQAPRLLIRYRSQSISGIPARFSGSGSGTDFTLTISSLEPEDFAVYYCQQSGSWPHTFGGGTKVEIK"
> 10 fold,2 to 4 fold,"LM609 grafted antibody combinatorial clone C29 (Fab, V domains shown, Fab) VH: QVQLVESGGGVVQPGRSLRLSCAASGFTFSSYDMSWVRQAPGKGLEWVAKVSSGGGSTYYPDTVQGRFTISRDNSKNTLYLQMNSLRAEDTAVYYCARHNHGSFYSWGQGTTVTVSS VL: EIVLTQSPATLSLSPGERATLSCQASQSISNHLHWYQQRPGQAPRLLIRYRSQSISGIPARFSGSGSGTDFTLTISSLEPEDFAVYYCQQSGSWPLTFGGGTKVEIK"

# Target: T1, integrin αVβ3
# Assay: ELISA titration of Fab on immobilized αVβ3
# Experimental: For ELISA titration of Fab on immobilized αVβ₃ and the related integrins αVβ₅ and αIIbβ₃, Immulon II microtiter plates were coated with 1 μg/ml purified receptor in 20 mM Tris, pH 7.4, 150 mM NaCl, 2 mM CaCl, 1 mM MgCl₂, 1 mM MnCl₂, washed once, and blocked in 3% BSA in 50 mM Tris, pH 7.4, 100 mM NaCl, 2 mM CaCl₂, 1 mM MgCl₂ for 1 h at 25° C. […] Just prior to use, the plates were washed two times and were then incubated 1 h at 25° C. with various dilutions of Fab. […] All dilutions and washes were in 50 mM Tris-HCl, pH 7.4, 100 mM NaCl, 2 mM CaCl₂, and 1 mM MgCl₂.
row,fold enhanced binding over LM609 grafted antibody,Binder
1,> 3 fold,"LM609 grafted antibody variant P60 (Fab, V domains shown, Fab) VH: QVQLVESGGGVVQPGRSLRLSCAASGFTFSSYDMSWVRQAPGKGLEWVAKVSSGGGSTYYPDTVQGRFTISRDNSKNTLYLQMNSLRAEDTAVYYCARHNYGSFAYWGQGTTVTVSS VL: EIVLTQSPATLSLSPGERATLSCQASQSISNHLHWYQQRPGQAPRLLIRYRSQSISGIPARFSGSGSGTDFTLTISSLEPEDFAVYYCQQSGSWPHTFGGGTKVEIK"
2,> 3 fold,"LM609 grafted antibody variant K52 (Fab, V domains shown, Fab) VH: QVQLVESGGGVVQPGRSLRLSCAASGFTFSSYDMSWVRQAPGKGLEWVAKVKSGGGSTYYLDTVQGRFTISRDNSKNTLYLQMNSLRAEDTAVYYCARHNYGSFAYWGQGTTVTVSS VL: EIVLTQSPATLSLSPGERATLSCQASQSISNHLHWYQQRPGQAPRLLIRYRSQSISGIPARFSGSGSGTDFTLTISSLEPEDFAVYYCQQSGSWPHTFGGGTKVEIK"
3,> 3 fold,"LM609 grafted antibody variant F32 (Fab, V domains shown, Fab) VH: QVQLVESGGGVVQPGRSLRLSCAASGFTFSSYDMSWVRQAPGKGLEWVAKVSSGGGSTYYLDTVQGRFTISRDNSKNTLYLQMNSLRAEDTAVYYCARHNYGSFAYWGQGTTVTVSS VL: EIVLTQSPATLSLSPGERATLSCQASQSISNFLHWYQQRPGQAPRLLIRYRSQSISGIPARFSGSGSGTDFTLTISSLEPEDFAVYYCQQSGSWPHTFGGGTKVEIK"
4,> 3 fold,"LM609 grafted antibody variant A102 (Fab, V domains shown, Fab) VH: QVQLVESGGGVVQPGRSLRLSCAASGFTFSSYDMSWVRQAPGKGLEWVAKVSSGGGSTYYLDTVQGRFTISRDNSKNTLYLQMNSLRAEDTAVYYCARHNYGSFAAWGQGTTVTVSS VL: EIVLTQSPATLSLSPGERATLSCQASQSISNHLHWYQQRPGQAPRLLIRYRSQSISGIPARFSGSGSGTDFTLTISSLEPEDFAVYYCQQSGSWPHTFGGGTKVEIK"
5,> 3 fold,"LM609 grafted antibody variant G102 (Fab, V domains shown, Fab) VH: QVQLVESGGGVVQPGRSLRLSCAASGFTFSSYDMSWVRQAPGKGLEWVAKVSSGGGSTYYLDTVQGRFTISRDNSKNTLYLQMNSLRAEDTAVYYCARHNYGSFAGWGQGTTVTVSS VL: EIVLTQSPATLSLSPGERATLSCQASQSISNHLHWYQQRPGQAPRLLIRYRSQSISGIPARFSGSGSGTDFTLTISSLEPEDFAVYYCQQSGSWPHTFGGGTKVEIK"
6,> 3 fold,"LM609 grafted antibody variant L30 (Fab, V domains shown, Fab) VH: QVQLVESGGGVVQPGRSLRLSCAASGFTFLSYDMSWVRQAPGKGLEWVAKVSSGGGSTYYLDTVQGRFTISRDNSKNTLYLQMNSLRAEDTAVYYCARHNYGSFAYWGQGTTVTVSS VL: EIVLTQSPATLSLSPGERATLSCQASQSISNHLHWYQQRPGQAPRLLIRYRSQSISGIPARFSGSGSGTDFTLTISSLEPEDFAVYYCQQSGSWPHTFGGGTKVEIK"
7,> 3 fold,"LM609 grafted antibody variant N92 (Fab, V domains shown, Fab) VH: QVQLVESGGGVVQPGRSLRLSCAASGFTFSSYDMSWVRQAPGKGLEWVAKVSSGGGSTYYLDTVQGRFTISRDNSKNTLYLQMNSLRAEDTAVYYCARHNYGSFAYWGQGTTVTVSS VL: EIVLTQSPATLSLSPGERATLSCQASQSISNHLHWYQQRPGQAPRLLIRYRSQSISGIPARFSGSGSGTDFTLTISSLEPEDFAVYYCQQSNSWPHTFGGGTKVEIK"
8,> 3 fold,"LM609 grafted antibody variant L96 (Fab, V domains shown, Fab) VH: QVQLVESGGGVVQPGRSLRLSCAASGFTFSSYDMSWVRQAPGKGLEWVAKVSSGGGSTYYLDTVQGRFTISRDNSKNTLYLQMNSLRAEDTAVYYCARHNYGSFAYWGQGTTVTVSS VL: EIVLTQSPATLSLSPGERATLSCQASQSISNHLHWYQQRPGQAPRLLIRYRSQSISGIPARFSGSGSGTDFTLTISSLEPEDFAVYYCQQSGSWPLTFGGGTKVEIK"
9,> 3 fold,"LM609 grafted antibody variant E102 (Fab, V domains shown, Fab) VH: QVQLVESGGGVVQPGRSLRLSCAASGFTFSSYDMSWVRQAPGKGLEWVAKVSSGGGSTYYLDTVQGRFTISRDNSKNTLYLQMNSLRAEDTAVYYCARHNYGSFAEWGQGTTVTVSS VL: EIVLTQSPATLSLSPGERATLSCQASQSISNHLHWYQQRPGQAPRLLIRYRSQSISGIPARFSGSGSGTDFTLTISSLEPEDFAVYYCQQSGSWPHTFGGGTKVEIK"
10,> 3 fold,"LM609 grafted antibody variant M102 (Fab, V domains shown, Fab) VH: QVQLVESGGGVVQPGRSLRLSCAASGFTFSSYDMSWVRQAPGKGLEWVAKVSSGGGSTYYLDTVQGRFTISRDNSKNTLYLQMNSLRAEDTAVYYCARHNYGSFAMWGQGTTVTVSS VL: EIVLTQSPATLSLSPGERATLSCQASQSISNHLHWYQQRPGQAPRLLIRYRSQSISGIPARFSGSGSGTDFTLTISSLEPEDFAVYYCQQSGSWPHTFGGGTKVEIK"
